Measurements published in US20230287070A1, “NOVEL TUMOR-SPECIFIC ANTIGENS FOR ACUTE MYELOID LEUKEMIA (AML) AND USES THEREOF” (UNIVERSITE DE MONTREAL, priority 2020, published 2023).
Blank lines part the entries; values can stand above or below the molecule they belong to.

How the values were obtained:
[1] = tested on: T-cell clonotypes; experiment: FEST assay (functional expansion of specific T cells, TCR Vβ CDR3 sequencing); assay type: cell-based, human; conditions: pool of TSAs^hi, healthy donor
Experimental: For FEST assays, T cells were cultured as previously described, with minor modifications (Danilova et al., 2018). Briefly, on day 0, thawed PBMCs from a healthy donor (BioIVT) were T-cell enriched using the Human Pan T-cell isolation kit (Miltenyi). T cells were resuspended at 2 × 10^6/mL in AIM V media supplemented with 50 µg/mL gentamicin (ThermoFisher Scientific) and 1% Hepes. The T cell-negative fraction was irradiated at 30 Gy, washed and resuspended at 2.0 × 10^6/mL in AIM V media supplemented with 50 µg/mL gentamicin and 1% Hepes. One ml per well of both T cells and irradiated T cell-depleted cells were added to a 12-well plate, along with either one of the 3 TSA^hi pools (5 TSAs^hi per pool, 1 µM final concentration for each TSA) or without peptide. Cells were cultured for 10 days at 37° C., 5% CO2. On day 3 and 7, half the culture media was replaced with fresh culture media containing 100 IU/mL IL-2, 50 ng/mL IL-7, and 50 ng/mL IL-15 (day 3) and 200 IU/mL IL-2, 50 ng/mL IL-7, and 50 ng/mL IL-15 (day 7). On day 10, cells were harvested and CD8^+ cells were further isolated using the Human CD8^+ T Cell Isolation Kit (Miltenyi). As a negative control, CD8^+ T cells were also isolated from freshly thawed uncultured PBMCs of the same healthy donor. DNA was extracted from CD8^+ T cells using a Qiagen DNA blood mini kit (Qiagen). […]

[2] = target: Pool 2 of TSAs^hi: … … … … …; experiment: cell-based or functional assay
[3] = target: Pool 1 of TSAs^hi: … … … IASPIALL …; experiment: cell-based or functional assay
[4] = target: Pool 3 of TSAs^hi: LRSQILSY … … … …; experiment: cell-based or functional assay

Molecule: 3 (GARQQIHSW; listed as Homo sapiens) [compound 3]
Significantly expanded clonotype (SEQ ID NO:) [1]: CARSFGGFF (213)

Molecule: CASSRTGENTEAFF (TCR)
FEST assay: clonotype expansion, odds ratio (FDR 0.003813) [2]: 3.35

Molecule: CASSYVLNTEAFF (TCR)
FEST assay: clonotype expansion, odds ratio (FDR 0.010284) [2]: 10.8

Molecule: CATSRSGDSNQPQHF (TCR)
FEST assay: clonotype expansion, odds ratio (FDR 0.008031) [2]: 8.21

The remaining lines, values ahead:

FEST assay: clonotype expansion, odds ratio (FDR 0.007052) [2]: 3.76
Molecule: CASSSTDRQHYGYTF (TCR)

FEST assay: clonotype expansion, odds ratio (FDR 4.67 E-30) [2]: 59.8
Molecule: CASSEYRALNTEAFF (TCR)

FEST assay: clonotype expansion, odds ratio (FDR 0.000665) [3]: 12.3
Molecule: CASSVDAGGNYEQYF (TCR)

FEST assay: clonotype expansion, odds ratio (FDR 1.14 E-08) [2]: 3.46
Molecule: CASSESGTGGQPQHF (TCR)

FEST assay: clonotype expansion, odds ratio (FDR 0.008031) [2]: 8.21
Molecule: CASSDRTGGSSNEKLFF (TCR)

FEST assay: clonotype expansion, odds ratio (FDR 1.2 E-07) [3]: 18.8
Molecule: CASTVVAGNSSPLHF (TCR)

FEST assay: clonotype expansion, odds ratio (FDR 1.13 E-10) [4]: 45.4
Molecule: CASSADSSLGGYTF (TCR)
